Measurements: US10660972B2, “Methods for coupling targeting peptides onto recombinant lysosomal enzymes for improved treatments of lysosomal storage diseases” (AMICUS THERAPEUTICS, INC., priority 2011, dated 2020)

Key:
IGF-2/CI-MPR = IGF-2/CI-MPR (Homo sapiens, UniProt P11717); conditions: ligand affinity for IGF-2/CI-MPR; read-out: Binding Affinity (Apparent Kd; nM); cited from earlier work
[1] = tested on: lysosomal enzyme activity (rhGAA, I2S); test: Enzyme activity of lysosomal enzyme after conjugation or deglycosylation; format: biochemical, human; conditions: after conjugation of variant IGF2 peptide (data not shown)
Description: The high-mannose type N-glycans on rhGAA is problematic because it is believed that these carbohydrates cause the protein to be rapidly cleared from the circulation via macrophage and splenic mannose receptors. […] Deglycosylation of rhGAA can be performed after the enzyme is modified with S-Hynic and purified (via size exclusion chromatography or dialysis to remove excess crosslinker). This strategy allows for complete deglycosylation of rhGAA over 1-5 days using EndoF or EndoH without affecting enzyme activity. The deglycosylated hydrazide-modified rhGAA is then conjugated to PEG4-benzaldehyde-modified IGF-2 peptides. Alternatively, rhGAA deglycosylation can be performed concurrently during the conjugation of PEG4-benzaldehyde-modified IGF-2 peptide to hydrazide-modified rhGAA using high concentrations of EndoF or EndoH. Deglycosylated, IGF2 peptide-conjugated rhGAA is then purified by gel filtration chromatography or dialysis to remove excess phosphine-modified IGF-2 peptides and stored in acidic pH buffer (50 mM sodium phosphate, pH 6.2/100 mM NaCl/0.05% Polysorbate-80). […]
To assess the functional effects of IGF2 peptide for the cellular uptake of exogenous lysosomal enzymes, the internalization of IGF2-conjugated rbGAA (vIGF2-rhGAA) was evaluated in L6 rat skeletal muscle myoblasts. […]

Fabry disease = conditions: 1 mg/kg body weight every other week; cited from earlier work

Chain of IGF-2/CI-MPR (P11717 41-2491): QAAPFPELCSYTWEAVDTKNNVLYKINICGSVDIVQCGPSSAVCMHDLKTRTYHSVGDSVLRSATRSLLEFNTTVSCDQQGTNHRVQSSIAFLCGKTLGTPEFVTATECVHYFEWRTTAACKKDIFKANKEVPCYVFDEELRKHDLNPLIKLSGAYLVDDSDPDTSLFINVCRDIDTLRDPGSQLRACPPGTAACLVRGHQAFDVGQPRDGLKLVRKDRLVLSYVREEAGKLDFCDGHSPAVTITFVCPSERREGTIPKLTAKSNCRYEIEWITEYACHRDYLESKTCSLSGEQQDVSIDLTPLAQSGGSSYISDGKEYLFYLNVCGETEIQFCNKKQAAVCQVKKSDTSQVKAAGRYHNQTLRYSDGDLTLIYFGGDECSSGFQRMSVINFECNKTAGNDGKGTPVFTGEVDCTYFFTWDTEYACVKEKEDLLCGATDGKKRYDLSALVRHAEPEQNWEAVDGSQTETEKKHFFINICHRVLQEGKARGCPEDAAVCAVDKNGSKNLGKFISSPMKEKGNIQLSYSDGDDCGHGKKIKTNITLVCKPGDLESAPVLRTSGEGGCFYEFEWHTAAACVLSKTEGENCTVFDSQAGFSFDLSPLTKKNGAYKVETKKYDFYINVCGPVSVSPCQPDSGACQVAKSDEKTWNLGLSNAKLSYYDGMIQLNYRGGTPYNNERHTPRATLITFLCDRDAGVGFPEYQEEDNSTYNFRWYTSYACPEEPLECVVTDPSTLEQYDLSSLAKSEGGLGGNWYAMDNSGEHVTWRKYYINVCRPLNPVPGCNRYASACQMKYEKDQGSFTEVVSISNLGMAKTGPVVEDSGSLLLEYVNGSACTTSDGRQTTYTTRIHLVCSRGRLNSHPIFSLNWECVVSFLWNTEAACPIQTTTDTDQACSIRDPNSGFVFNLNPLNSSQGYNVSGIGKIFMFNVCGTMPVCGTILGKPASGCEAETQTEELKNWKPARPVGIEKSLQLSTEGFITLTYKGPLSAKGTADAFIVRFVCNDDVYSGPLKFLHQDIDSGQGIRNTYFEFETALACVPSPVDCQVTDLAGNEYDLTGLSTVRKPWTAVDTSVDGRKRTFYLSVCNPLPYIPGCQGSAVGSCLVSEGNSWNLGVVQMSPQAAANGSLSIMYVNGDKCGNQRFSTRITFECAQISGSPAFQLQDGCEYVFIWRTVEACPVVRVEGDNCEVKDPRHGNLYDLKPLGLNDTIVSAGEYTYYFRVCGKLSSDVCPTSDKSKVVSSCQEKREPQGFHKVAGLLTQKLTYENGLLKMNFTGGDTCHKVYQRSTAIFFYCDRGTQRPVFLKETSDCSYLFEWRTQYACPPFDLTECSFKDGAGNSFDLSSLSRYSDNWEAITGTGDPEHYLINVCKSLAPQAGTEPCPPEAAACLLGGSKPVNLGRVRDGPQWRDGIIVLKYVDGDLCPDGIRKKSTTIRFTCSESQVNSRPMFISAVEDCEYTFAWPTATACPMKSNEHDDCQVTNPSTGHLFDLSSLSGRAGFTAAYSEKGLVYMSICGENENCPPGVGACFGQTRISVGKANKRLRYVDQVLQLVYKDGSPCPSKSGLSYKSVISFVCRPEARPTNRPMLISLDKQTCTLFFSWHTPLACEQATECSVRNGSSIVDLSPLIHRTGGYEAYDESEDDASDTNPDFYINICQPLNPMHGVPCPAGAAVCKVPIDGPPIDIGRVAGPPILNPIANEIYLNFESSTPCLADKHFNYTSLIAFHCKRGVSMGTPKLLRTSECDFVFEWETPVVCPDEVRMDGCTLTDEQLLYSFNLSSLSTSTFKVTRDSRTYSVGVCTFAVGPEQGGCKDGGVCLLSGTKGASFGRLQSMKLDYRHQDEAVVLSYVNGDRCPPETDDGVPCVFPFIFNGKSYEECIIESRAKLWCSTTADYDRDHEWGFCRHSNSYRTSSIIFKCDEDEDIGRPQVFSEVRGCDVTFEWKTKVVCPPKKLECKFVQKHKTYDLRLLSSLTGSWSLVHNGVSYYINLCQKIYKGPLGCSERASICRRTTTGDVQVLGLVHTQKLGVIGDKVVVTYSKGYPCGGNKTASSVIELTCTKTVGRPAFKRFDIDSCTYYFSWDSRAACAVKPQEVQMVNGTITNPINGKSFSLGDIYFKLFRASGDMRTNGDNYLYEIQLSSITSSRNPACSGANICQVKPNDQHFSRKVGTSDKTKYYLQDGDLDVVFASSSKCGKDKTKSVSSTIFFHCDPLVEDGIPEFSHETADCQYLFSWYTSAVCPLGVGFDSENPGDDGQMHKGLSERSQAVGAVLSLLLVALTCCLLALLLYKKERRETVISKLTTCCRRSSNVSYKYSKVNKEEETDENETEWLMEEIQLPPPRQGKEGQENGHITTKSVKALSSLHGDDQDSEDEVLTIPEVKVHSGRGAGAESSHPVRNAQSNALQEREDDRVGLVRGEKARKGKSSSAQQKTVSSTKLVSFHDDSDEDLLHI

B1: beta-galactosidase: lysosomal enzyme listed as ligand of IGF-2/CI-MPR (protein, UniProt P16278 29-677, looked up)
Beta-galactosidase: QRMFEIDYSRDSFLKDGQPFRYISGSIHYSRVPRFYWKDRLLKMKMAGLNAIQTYVPWNFHEPWPGQYQFSEDHDVEYFLRLAHELGLLVILRPGPYICAEWEMGGLPAWLLEKESILLRSSDPDYLAAVDKWLGVLLPKMKPLLYQNGGPVITVQVENEYGSYFACDFDYLRFLQKRFRHHLGDDVVLFTTDGAHKTFLKCGALQGLYTTVDFGTGSNITDAFLSQRKCEPKGPLINSEFYTGWLDHWGQPHSTIKTEAVASSLYDILARGASVNLYMFIGGTNFAYWNGANSPYAAQPTSYDYDAPLSEAGDLTEKYFALRNIIQKFEKVPEGPIPPSTPKFAYGKVTLEKLKTVGAALDILCPSGPIKSLYPLTFIQVKQHYGFVLYRTTLPQDCSNPAPLSSPLNGVHDRAYVAVDGIPQGVLERNNVITLNITGKAGATLDLLVENMGRVNYGAYINDFKGLVSNLTLSSNILTDWTIFPLDTEDAVRSHLGGWGHRDSGHHDEAWAHNSSNYTLPAFYMGNFSIPSGIPDLPQDTFIQFPGWTKGQVWINGFNLGRYWPARGPQLTLFVPQHILMTSAPNTITVLELEWAPCSSDDPELCAVTFVDRPVIGSSVTYDHPSKPVEKRLMPPPPQKNKDSWLDHV
- Kd (IGF-2/CI-MPR): 20 nM

B2: I2S: Recombinant human acid iduronidate 2-sulfatase (protein, UniProt P22304 34-455; P22304 456-550, looked up)
Iduronate 2-sulfatase 42 kDa …: TDALNVLLIIVDDLRPSLGCYGDKLVRSPNIDQLASHSLLFQNAFAQQAVCAPSRVSFLTGRRPDTTRLYDFNSYWRVHAGNFSTIPQYFKENGYVTMSVGKVFHPGISSNHTDDSPYSWSFPPYHPSSEKYENTKTCRGPDGELHANLLCPVDVLDVPEGTLPDKQSTEQAIQLLEKMKTSASPFFLAVGYHKPHIPFRYPKEFQKLYPLENITLAPDPEVPDGLPPVAYNPWMDIRQREDVQALNISVPYGPIPVDFQRKIRQSYFASVSYLDTQVGRLLSALDDLQLANSTIIAFTSDHGWALGEHGEWAKYSNFDVATHVPLIFYVPGRTASLPEAGEKLFPYLDPFDSASQLMEPGRQSMDLVELVSLFPTLAGLAGLQVPPRCPVPSFHVELCREGKNLLKHFRFRDLEEDPYLPG
Iduronate 2-sulfatase 14 kDa …: NPRELIAYSQYPRPSDIPQWNSDKPSLKDIKIMGYSIRTIDYRYTVWVGFNPDEFLANFSDIHAGELYFVDSDPLQDHNMYNDSQGGDLFQLLMP
- effect of chemical conjugation of variant IGF2 peptide on enzyme activity [1]: did not affect enzyme activity

B3: Fabrazyme: recombinant acid α-galactosidase A; Genzyme Corp. (protein, UniProt P06280 32-429, looked up)
Alpha-galactosidase A: LDNGLARTPTMGWLHWERFMCNLDCQEEPDSCISEKLFMEMAELMVSEGWKDAGYEYLCIDDCWMAPQRDSEGRLQADPQRFPHGIRQLANYVHSKGLKLGIYADVGNKTCAGFPGSFGYYDIDAQTFADWGVDLLKFDGCYCDSLENLADGYKHMSLALNRTGRSIVYSCEWPLYMWPFQKPNYTEIRQYCNHWRNFADIDDSWKSIKSILDWTSFNQERIVDVAGPGGWNDPDMLVIGNFGLSWNQQVTQMALWAIMAAPLFMSNDLRHISPQAKALLQDKDVIAINQDPLGKQGYQLRQGDNFEVWERPLSGLAWAVAMINRQEIGGPRSYTIAVASLGKGVACNPACFITQLLPVKRKLGFYEWTSRLRSHINPTGTVLLQLENTMQMSLKDLL
- clinical effectiveness in Fabry disease (Fabry disease): sufficient to clear accumulated substrate from endothelial cells
